Source: patent US10172917B2, “Targeted oesophageal administration of ZN-α2-glycoproteins (ZAG), methods and formulations thereof” (ASTON UNIVERSITY, priority 2012, dated 2019)

Tests used:
ob/ob mice = experiment: Oral ZAG in drinking water to ob/ob mice: body weight, rectal temperature, urinary glucose excretion; assay type: in vivo, mouse
Description: Obese (ob/ob) mice (average weight 65 g) were bred in a colony, and were kept in an air conditioned room at 22+2° C. with ad libitum feeding of a rat and mouse breeding diet (Special Diet Services, Witham, UK) and tap water. […] Animals were grouped (n=5) to receive either ZAG/PBS (50 μg day^−1), or PBS in their drinking water, the experiment was repeated three times after a power analysis was performed. […] The ZAG was replaced every 48 h. […] The dose of ZAG was chosen to be the same as that previously administered i.v. (1), so that a direct comparison could be made, between the two routes. Body weight, food and water intake, urinary glucose excretion, and body temperature, determined by the use of a rectal thermometer (RS Components, Northants, UK), were measured daily. A glucose tolerance test was performed on day 3. Animals were fasted for 12 h, followed by oral administration of glucose (1 gkg^−1 in a volume of 100 μl by gavage). Blood samples were removed from the tail vein at 15, 30, 60 and 120 min and used for the measurement of glucose. Urinary glucose was measured by collecting 0.5 ml urine and testing glucose concentration using a Boots glucose monitor. After 8 days of treatment the animals were terminated by cervical dislocation, tissues were removed and rapidly frozen in liquid nitrogen, and maintained at −80° C. Future work would be to repeat this work in diet-induced animals as alternative to a model with gene alteration, although previous studies have shown the ob/ob mouse to be a good indicator of potential human treatments. Animal studies were conducted under Home Office Licence according to the UKCCCR Guidelines for the care and use of laboratory animals.

murine ZAG = experiment: Western blotting of murine ZAG in serum and WAT of ob/ob mice; assay type: in vivo, mouse; conditions: ob/ob mice dosed orally with human ZAG for 8 days, anti-mouse ZAG antibody
Description: Tissues were thawed, washed in PBS and lysed in Phosphosafe™ Extraction reagent for 5 min at room temperature, followed by sonication at 4° C. Cytosolic protein (5-20 ug) formed by centrifugation at 18,000 g for 5 min at 4° C., was resolved on 12% SDS PAGE by electrophoresis at 180V for about 1 h. To determine ZAG in serum 30 μl samples containing 20 μg total protein were electrophoresed as above. Protein was transferred to 0.45 μm nitrocellulose membranes, which had been blocked with 5% (w/v) non-fat dried milk (Marvel) in Tris-buffered saline, pH 7.5, at 4° C. overnight. Membranes were washed for 15 min in 0.1% Tween 20 buffered saline prior to adding the primary antibodies. Both primary and secondary antibodies were used at a dilution of 1:1000. Incubation was for 1 h at room temperature, and development was by ECL. Blots were scanned by a densitometer to quantify differences.

ZAG mRNA = experiment: ZAG gene expression in mouse tissues by RT-PCR; assay type: in vivo; conditions: mice treated with ZAG orally; compared to stomach, small intestine or colon
Description: Total RNA was extracted from tissues (50-120 mg) and adipocytes with Trizol. RNA samples used for real-time PCR were treated with a DNA-free kit (Ambion) to remove any genomic DNA. The RNA concentration was determined from the absorbance at 260 nm. 1 μg of total RNA of each sample was reverse transcribed to cDNA in a final volume of 20 μl by using a Reverse-iT first strand kit (ABgene). 1 μl of each cDNA sample was then amplified in a PCR mixture containing 0.02 mM of each primer and 1.1⋅Reddy Mix PCR Master Mix (ABgene) in a final volume of 25 μl. Human b-actin was used as a house keeping gene. The PCR products were sequenced commercially to confirm their identity (MWG Biotech). (7)
Relative ZAG mRNA levels were quantified using real-time PCR with an ABI Prism 7700 Sequence Detector (Applied Biosystems). Mouse β-actin mRNA levels were similarly measured and served as the reference gene. Primers and Taqman probes were designed using PrimerExpress software (Applied Biosystems).

[1] = 50 μg day^−1 po in drinking water

B1: zinc-α2-glycoprotein (protein, listed as Homo sapiens)
chain: QENQDGRYSLTYIYTGLSKHVEDVPAFQALGSLNDLQFFRYNSKDRKSQPMGLWRQVEGMEDWKEDSQLQKAREDMETLKDIVEYYNDSNGSHVLQGRFGCEIENNRSSGAFWKYYYDGKDYIEFNKEIPAWVPFDPAAQITKQKWEAEPVYVQRAKAYLEEECPATLRKYLKYSKNILDRQDPPSVVVTSHQAPGEKKKLKCLAYDFYPGKIDVHWTRAGQVQEPELRGDVLHNGNGTYQSWVVVAVPPQDTAPYSCHVQHSSLAQPLVVPWEAS
notes: Recombinant human ZAG, a 41 kDa protein, produced by HEK293F cells transfected with pcDNA3.1 containing human ZAG
Question: Which results are given for B1?
Answer: increase in rectal temperature (ob/ob mice; [1]): 0.5 °C; reduction in urinary glucose excretion (ob/ob mice; [1]): 40%; loss of body weight / difference in body weight between ZAG and PBS groups (ob/ob mice; 50 μg day^−1 po in drinking water, after 8 days treatment): 5 g; difference in body weight between the ZAG and PBS groups (ob/ob mice; 50 μg per day in drinking water, after 5 days of treatment): 3.5 g; time of treatment after which increase in rectal temperature became significant (ob/ob mice; oral ZAG 50 μg per day): 4 days; time of treatment after which reduction in urinary glucose excretion became significant (ob/ob mice; oral ZAG 50 μg per day): 1 days; elevation of murine ZAG in serum (murine ZAG): two-fold; elevation of murine ZAG in serum (murine ZAG; listed as human ZAG): 2 fold; ZAG mRNA in oesophageal tissue (ZAG mRNA): dramatically increased
